Data taken from patent US20220306762A1 (CRYSTAL BIOSCIENCE, published 2022).

Tests used:
[1] = target: T1, His-tagged human CD38 (ACRO Biosystems CD8-H5224) (human, UniProt P28907 43-300); test: SPR (second run), His-tagged CD38
T1 construct: bought protein; used for ELISA coating and as SPR analyte; not shown: His tag

[2] = target: T2, His-tagged cynomolgus monkey CD38 (ACRO Biosystems, CD8-05223 [sic]) (cynomolgus monkey, UniProt Q5VAN0 43-301); test: SPR (second run), His-tagged CD38
T2 construct: bought protein; used for ELISA coating and as SPR analyte; not shown: His tag

[3] = target: T1, His-tagged human CD38 (ACRO Biosystems …); test: SPR, IgG
[4] = target: T2, His-tagged cynomolgus monkey CD38 (ACRO …); test: SPR, IgG

| Binder | Kd [1] [nM] | Kd [2] [nM] | Kd [3] [nM] | Kd [4] [nM] |
| --- | --- | --- | --- | --- |
| 40769p1.1.B8 (scFv, V domains shown) VH: EVQLLESGGGLVQPGGSLRLSCAASGFTFEDYAMSWVRQAPGKGLEWVSVISSKGGSTSNADSVKGRFTISRDNSKNTLYLQMNSLRAEDTAVYYCAKGMERQYYSYNAMDVWGQGTTVTVSS VL: QSVLTQPPSASGTPGQRVTISCSGSNSNIDVDYVYWYQQLPGTAPRLLIYKDDQRPSGVPDRFSGSKSGTSASLAISGLQSEDEADYYCATWDDNLNSWLFGGGTKLTVL | 0.25 | 3.29 |  |  |
| 40769p1.2.E3 (scFv, V domains shown) VH: EVQLLESGGDLVQPGGSLRLSCGASGFTFSDHYMSWVRQAPGKGLEWVADISARGSNTWYADSVKGRFTISRDNSENTLYLQMNSLRAEDTAVYYCAKNWNYNYGMDVWGQGTTVTVSS VL: QSVLTQAPSASGTPGQRVTISCSGSSIQNNYVSWYQQLPGTAPKLLIYRNFERPSGVPDRFSASKSGTSASLAISGLQSEDEADYYCASWDDSLNWVFGGGTKLTVL | 6.74 | 4.9 |  |  |
| 40596p2.1.B8 IgG (antibody, V domains shown, IgG) VH: EVQLLESGGGLGQPGGSLRLSCAASGFDFSSYAMSWVRQAPGKGLEWVAGGGWSGSFIYYADSVKGRFTISRDNSKNTLYLQMNSLRAEDTAVYYCTRNPGFGEMDVWGQGTTVTVSS VL: EIVLTQSPGTLSLSPGERATLSCRASQTVGSNLAWYQQKPGQAPRLLIHGANNRATDIPDRFSGSGSGTEFTLTVSSLQSEDFAIYYCQQYNSWPPLTFGGGTKVEIK |  |  | 18.5 | 159 |
| 40769p1.1.A2 (scFv, V domains shown) VH: EVQLLESGGGLVQPGGSLRLSCAASGFLFDDYGMSWVRQAPGKGLEWVSAISYKGGSTYYADSVKGRFTISRDNSKNTLYLQMSSLRAEDTAVYYCAKDHKWNYYGMDVWGQGTTVTVSS VL: QSVLTQPPSASGTPGQRVTISCSGSTSNIGNDNYVSWYQQLPGTAPRLLIYKDDQRPSGVPDRFSGSKSGTSASLAISGLQSEDEADYYCGTWDDRLNAWVFGGGTKLTVL | 0.82 | 0.72 |  |  |
| 40769p1.1.G12 (scFv, V domains shown) VH: EVQLLESGGGLVQPGGSLRLSCAASGFTFDDYVMSWVRQAPGKGLEWVSEISESDGSNKYYADSVKGRFIISRDNSKNTLYLQMNSLRAEDTAVYYCARLEPEKYYGMDVWGQGTTVTVSS VL: QSVLTQPPSASGTPGQRVTISCSGSNSNIGNNLVSWYQQLPGTAPKLLIYRHDHRPSGVPDRFSGSKSGTSASLAISGLQSEDEADYYCATWDDSLNGRAFGGGTKLTVL | 2.81 | 15.3 |  |  |
| 40769p1.1.G5 (scFv, V domains shown) VH: EVQLLESGGGFVQPGGSLRLSCAASGFNFNNAWMNWVRQAPGKGLEWVGIINGDGTNTYYADSVKGRFTISRDNSKNTLYLQMSSLRAEDTAIYYCARDNKLNDYYYAMDVWGQGTTVTV VL: QSVLTQPSSASGTPGQRVTISCSGGSSNIHANYVYWYQQLPGTAPKLLIYRNSQRPSGVPDRFSGSKSGTSASLAISGLQSEDEADYYCGTWDNILNVWVFGGGTKLTVL | 7.56 | 28.1 |  |  |
| 40617p1.1.F1 (scFv, V domains shown) VH: KVQLLESGGGLVQPGGSLRLSCAASGFTFSSYSMTWVRQAPGKGLEWVSRIYNGGSTYYADSVKGRFTISRDNSKNTLYLQMNSLRAEDTAVYYCARDTYAIDVWGQGTTVTVSS VL: EIVLTQSPATLSVSPGERATLSCRASQGIAGNLAWYQQKPGQAPRLLIYAASNRATGIPARFSGSGSGTDFTLTISSLQSEDFAVYYCQHYYDWPPYSFGGGTKVEIK | 119 | 786 |  |  |
| 40769p1.1.E2 (scFv, V domains shown) VH: EVLLLESGGGLVQPGGSLRLSCAASGFTFSDYWMSWVRQAPGKGLEWVSTISISAGIIYYADSVKGRFTISRDNSKNTLYLQMNSLRAEDTAVYYCAKDNWNDYYGMDVWGQGTTVTVSS VL: QSVLTQPPSASGTPGQRVTMSCSGNNQNIRDNYVYWYQQVPGTAPKLLIYKDDQRPSGVPDRFSGSKSGTSASLAISGLQSEDEADYYCATWDGSLKARVFGGGTKLTVL | 6.99 | 8.31 |  |  |
| 40769p1.1.G10 (scFv, V domains shown) VH: EVQLLESGGGLVQPGGSLRLSCAASGFTFSDYWMNWVRQAPGKGLEWVSTISSGGSMIYHADSVKGRFTISRDNSKNTLYLQMNSLRPEDTAVYYCAKDNWNDYYGMDVWGQGTTVTVSS VL: QSVLTQPPSASGTPGQRVNISCSGSSSNIRYNYVYWYQQVPGTAPKLLIYKDDQRPSGVPDRFSGSESGTSASLAISGLQSEDEADYYCATWDGSLNARVFGGGTKLTVL | 1.71 | 72.1 |  |  |

The next lines start with the values.

| Kd [1] [nM] | Kd [2] [nM] | Kd [3] [nM] | Kd [4] [nM] | Binder |
| --- | --- | --- | --- | --- |
| 8.02 | 7.84 |  |  | 40769p1.2.B4 (scFv, V domains shown) VH: EVQLLESGGDLVQPGGSLRLSCGASGFTFSDHYMSWVRQAPGKGLEWVADISARGSNTWYADSVKGRFTISRDNSENTLYLQMNSLRAEDTAVYYCAKNWNYNYGMDVWGHGTTVTVSS VL: QSVLTQAPSASGTPGQRVTISCSGSSIQNNYVSWYQQLPGTAPKLLIYRNFERPSGVPDRFSASKSGTSASLAISGLQSEDEADYYCASWDDSLNWVFGGGTKLTVL |
| 8.85 | 8.27 |  |  | 40769p1.2.F9 (scFv, V domains shown) VH: EVQLLESGGDLVQPGGSLRLSCGASGFTFSDHYMSWVRQAPGKGLEWVADISARGSNTWYADSVKGRFTISRDNSENTLYLQMNSLRAEDTAVYYCAKNWNYNYGMDVWGQGTTVTVSS VL: QSVLTQAPSASGTPGQRVTISCSGSSIQNNYVSWYQQLPGTAPKLLIYRNFERPSGVPDRFSASKSGTSASLAISGLQSGDEADYYCASWDDSLNWVFGGGTKLTVL |
|  |  | 41.3 | 348 | 40769p2.2.D3 IgG (antibody, V domains shown, IgG) VH: EVQLLESGGGLIQPGGSLRLSCTASGFDFSSYGMHWVRQAPGKGLEWVGIISDSGGTTYYADSVKGRFTISRDNSKNTLYLQMNSLRAEDTALYYCASYIMDVWGQGITVTVSS VL: QSVLTQPPSASGTPGQRVTISCSGSNSNVGVNSVYWYQQLPGTAPKLLIYGSGRRPSGVPDRFSVSKSGTSASLAISGLQSEDEADYYCAAWDGGLNAWVFGGGTKLTVL |
|  |  | 50.4 | 205 | 40769p2.2.G3 IgG (antibody, V domains shown, IgG) VH: EVQLLESGGGLVQPGGSLRLSCTASGITFSRFNMFWVRQAPGKGLEFVASIRDDGSWTYYADSVKGQFTISRDNSKNTLYLQMNSLRAEDTAVYYCAKDYSSKDFIYHYVMDVWGQGTTVTVSS VL: QSVLTQPPSASGTPGQRVTISCSGRNSNIGNNVVNWYQQLPGTAPKLLIYRNQERPSGVPDRFSGSKSGTSASLAISGLQSEDEADYYCASWDDSLNAWVFGRGTKLTVL |
|  |  | 1.18 | 467 | 40769p2.1.E5 IgG (antibody, V domains shown, IgG) VH: EVQLLESGGGLVQPGGSLRLSCTASAHIFKYNWMSWVRQAPGKGLEWVSSINSDGTITYYTDSVKGRFTISRDNSKNTLYLQMNSLRAEDTAVYYCAKDNWNDYAIDVWGQGTTVTVSS VL: QSVLTQPPSASGTPGQRVTISCSGSRSDIRNNYVSWYQQLPGTAPKLLIYSNGQRPSGVPDRFSGSKSGTSASLAISGLQSEDEADYYCAIWDDSLNAWVFGGGTKLTVL |
|  |  | 0.67 | 2.18 | 40769p2.2.C11 IgG (antibody, V domains shown, IgG) VH: EVQLLESGGGLVQPGGSLRLSCAASGFTFSDYEMNWVRQAPGKGLEWVSSISITGSWTYYADSVKGRFTISRDNSKNTLYLQMNNLRAEDTAVYYCANYKSYYGMDVWGHGTTVTVSS VL: not shown |
|  |  | 21.9 | 22.9 | 40769p2.2.A6 IgG (antibody, V domains shown, IgG) VH: EVQLLESGGGLVQPGGSLRLSCAASGFTFSDYEMNWVRQAPGKGLEWVSAISITGSWTYYADSVKGRFTISRDNSENTLYLQMNNLRAEDTAVYYCANYKSYYGMDVWGRGTTVTVSS VL: QSVLTQPPSASGTPGQRVTISCSGSRSNIRNNLVNWYQQLPGTAPKLLIYNTQRPSGVPDRFSGSKSGTSASLAISGLQSEDEADYYCASWDASLNAWVFGGGTKLTVL |
|  |  | 0.14 | 0.35 | 40769p2.1.E8 IgG (antibody, V domains shown, IgG) VH: EVQLLESGGGLVQPGGSLRLSCTGFGFTFTDARMSWVRQAPGKGLEWVADISSYGDNTYYADSVKGRFTISRDNSANTLYVQMNSLRAEDTAVYYCAKRMEREVMTIKLDYHAMDVWGQGTTVTVSS VL: QSVLTQTPSVSGTPGQRVTISCSGVFNIRNYVSWYQQLPGTAPKLLIFKDDQRPSGVPDRFSGSRSGTSASLAISGLQSEDEADYYCAAWDIFLNVWVFGGGTKLTVL |
|  |  | 60.7 | 29.3 | 40769p2.1.C1 IgG (antibody, V domains shown, IgG) VH: EVQLLESGGGLVQPGGSLRLSCAASGFSFSDYWMNWVRQAPGKGLEWVSTISSGGNMIYYADSVKGRFTISRDNSKNTLYLRMNSLRAEDTAVYYCAKDNWNDYYGMDVWGQGTTVTVSS VL: QSVLTQPPSASGTPGQRVTISCSGSSSNIRDNYVYWYQQVPGTAPKLLIYKDDQRPSGVPDRFSGSKSGSSASLAISGLQSEDEADYYCATWDGSLNARVFGGGTKLTVL |
| 58.5 | 59.9 |  |  | 40769p1.1.H1 (scFv, V domains shown) VH: EVQLLESGGGLVQPGGSLRLSCAASGFTFSDYWMNWVRQAPGKGLEWVSTISSGGSMIYHADSVKGRFTISRDNSKNTLYLQMNSLRPEDTAVYYCAKDNWNDYYGMDVWGQGTTVTVSS VL: QSVLTQPPSASGTPGQRVNISCSGSSSNIRYNYVYWYQQVPGTAPKLLIYKDDQRPSGVPDRFSGSKSGTSASLAISELQSEDEADYYCATWDGSLNARVFGGGTKLTVL |
|  |  | 57 | 167 | 40769p2.2.H4 IgG (antibody, V domains shown, IgG) VH: EVQLLESGGGLVQPGGSLRLSCAASGFDFSSYWMNWVRQAPGKGLEWVSTISSGGSIIYYADSVKGQFTISRDNSKNTLYLQMNSLRAEDTAVYYCAKDNWNDYYGMDVWGQGTTVTVSS VL: QSVPTQPPSASGTPGQRVTISCSGSSSNIRDNYVYWYQQVPGTAPKLLIYKDDQRPSGVPDRFSGSKSGTSASLAISGLQSEDEADYYCATWDGSLNARVFGGGTKLTVL |
